What was measured:
[1] = Dose response finding (tolerability) in WT CD1 mice
From the text: Animals were under observation daily and 3× per week animals were weighed. […] The data were expressed as % of body weight (BW) change (relative to the initial BW −7 day before the treatment).
Animals were under observation daily and 3× per week animals were weighed. […] The data were expressed as % of body weight (BW) change (relative to the BW seven days before the treatment, i.e. the initial BW at day −7) (average+/−SEM).

[2] = target: T1, human DLL3 and human serum albumin (Homo sapiens, UniProt P02768+Q9NYJ7); assay: SPR simultaneous binding to DLL3 and serum albumin; conditions: immobilized hDLL3-ECD, 150 nM conjugate then 1000 nM HSA
T1 construct: Biotinylated recombinant human DLL3-ECD was immobilized
Method: Studies were performed to determine whether a two domain (2D) ankyrin repeat protein conjugate, as described herein, can bind simultaneously to DLL3 and serum albumin. The specific conjugate tested was MAM279 (SEQ ID NO: 11), with a Glycine-Serine (GS) at its N-terminal end and a tag (SEQ ID NO: 10) at its C-terminal end (resulting in GS-MAM279-tag (SEQ ID NO: 15)), conjugated to the chelator DOTAM as described in Example 3.
An SPR assay was used to assess the concurrent binding of DARPin (MAM279) conjugate to both human DLL3 and human serum albumin (HSA). […] A streptavidin SAHC200M (Xantec) sensor chip was conditioned according to the manufacturer's protocol. Biotinylated recombinant human DLL3-ECD was immobilized to a coating density of 1350-1470 RU. A single injection of 150 nM DARPin conjugate was performed, with an association time of 240 s using a constant flow of 100 μl/min. After a lag time of ˜300 seconds, HSA was injected at 1000 nM with an association time of 240 seconds and a dissociation time of 900 seconds using a constant flow of 100 μl/min. Control lanes were used where only one of the analytes or only PBST was injected. The signal was double referenced (interspot and buffer injection). The figure (FIG. 17) was prepared with GraphPad Prism 10.2.3.

Human DLL3-ECD = target: T2, Human DLL3-ECD (Homo sapiens, UniProt Q9NYJ7); assay: SPR, immobilized DARPin, binding of human DLL3-ECD (Example 17); conditions: immobilized biotinylated DARPin, DLL3-ECD as analyte, 1:1 Langmuir, Table 19
T2 construct: the extracellular domain of DLL3 (DLL3-ECD) from human, cynomolgus monkey, mouse and pig
T2 sequence (Q9NYJ7 27-492 limits assumed): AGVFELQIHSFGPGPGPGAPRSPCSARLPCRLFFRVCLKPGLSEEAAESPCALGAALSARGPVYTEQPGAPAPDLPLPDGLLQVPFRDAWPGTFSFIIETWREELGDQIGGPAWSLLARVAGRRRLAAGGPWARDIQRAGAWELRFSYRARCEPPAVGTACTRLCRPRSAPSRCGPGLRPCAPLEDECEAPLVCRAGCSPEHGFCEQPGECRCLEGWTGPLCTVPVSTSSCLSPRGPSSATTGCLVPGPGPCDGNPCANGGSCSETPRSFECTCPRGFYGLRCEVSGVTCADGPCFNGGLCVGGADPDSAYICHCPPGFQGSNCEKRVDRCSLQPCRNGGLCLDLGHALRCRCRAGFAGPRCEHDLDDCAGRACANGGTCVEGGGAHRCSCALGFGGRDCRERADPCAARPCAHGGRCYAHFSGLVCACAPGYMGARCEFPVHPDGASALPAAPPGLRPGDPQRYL
Method: (§1) Kinetic binding parameters and binding affinities of two domain (2D) ankyrin repeat protein MAM279 and single domain (1 D) ankyrin repeat protein MAM093 to DLL3 from different species were determined. The DLL3-specific ankyrin repeat domain of MAM093 is identical to the DLL3-specific ankyrin repeat domain comprised in MAM279.
(§2) SPR multi-trace analyses were performed similarly as described in Examples 1 and 11. Here, the binding kinetics of immobilized DARPin proteins to the extracellular domain of DLL3 (DLL3-ECD) from human, cynomolgus monkey, mouse and pig were determined. Various concentrations of recombinant DLL3-ECD starting from 500 nM were applied to immobilized biotinylated 2D DARPin (MAM279; SEQ ID NO: 11) or 1 D DARPin (MAM093; SEQ ID NO: 1) (both with a Glycine-Serine (GS) at the N-terminal end) for on-rate and off-rate measurements.
(§3) Streptavidin SAHC200M (Xantec) SPR chip was conditioned according to the manufacturer's protocol. Biotinylated DARPins were immobilized to a coating density of 27 resonance units (RU) for 1D DARPin and 25 RU for 2D DARPin. All analytes (3-fold dilution ranging from 500-6.17 nM) were injected in succession for 240 s and dissociation was recorded for 10800 s using a constant flow of 100 μl/min.

human serum albumin = human serum albumin (Homo sapiens, UniProt P02768); assay: SPR binding to human serum albumin (Example 18); set-up: purchased CSL; conditions: immobilized HSA, 1:1 Langmuir, Table 21
Method: SPR multi-trace analyses were performed similarly as described in previous Examples. The following ankyrin repeat proteins analyzed: (i) MAM279 (SEQ ID NO: 11) (with a Glycine-Serine (GS) at its N-terminal end); and (ii) MAM279 (SEQ ID NO: 11), with a Glycine-Serine (GS) at its N-terminal end and a tag (SEQ ID NO: 10) at its C-terminal end (resulting in GS-MAM279-tag (SEQ ID NO: 15)), conjugated to the chelator DOTAM as described in Example 3.
All analytes (3-fold dilution ranging from 600-7.41 nM) were injected in succession for 240 s and dissociation was recorded for 600 s using a constant flow of 25 μl/min (HSA) or 100 μl/min (MSA) (25 μl/min). […] The obtained SPR traces were used to determine the DARPin-serum albumin interaction parameters, and results are summarized in Table 21.

pig DLL3-ECD = assay: SPR, immobilized DARPin, binding of pig DLL3-ECD (Example 17); conditions: immobilized biotinylated DARPin, DLL3-ECD as analyte, 1:1 Langmuir, Table 20
Method: as §1, §2, §3

B1: MAM279 conjugate: SEQ ID NO: 15 conjugated to DOTAM-maleimide, labelled with Pb-212 (natural lead in PK studies) (conjugate)
chain: GSDLGKKLLEAARAGQDDEVRELLKAGADVNAKDYFSHTPLHLAARNGHLKIVEVLLKAGADVNAKDFAGKTPLHLAADAGHLEIVEVLLKAGADVNAQDIFGKTPADIAADAGHEDIAEVLQKAAGSPTPTPTTPTPTPTTPTPTPTGSDLGKKLLAAAAQGQDDEVRELLKAGANVNAKDLFGYTPLHLAAWRGHLEIVEVLLKAGADVNAKDAAGETPLHLAAWFGHLEIVEVLLKAGADVNAQDLQGKTPADLAAKEGHEDIAEVLQKAAGSGSC
modifications: DOTAM-maleimide, Pb-212 label; Ankyrin repeat protein with tag (GS-MAM279-tag)
[1]; Pb-212 labelled conjugate injected once at 10 μCi, 20 μCi and 30 μCi i.v., WT CD1 mice
  appearance of animals: animals appeared healthy and active
[1]; Pb-212 labelled conjugate injected once at 10 μCi, 20 μCi and 30 μCi, WT CD1 mice, recovered within up to about 10 days
  body weight (BW) change: Minimal weight loss
[1]; Pb-212 labelled conjugate, injected dose of 60 μCi, WT CD1 mice
  toxicity: Toxicity was observed
[1]; within up to 28 days after injection of 10 μCi, 20 μCi and 30 μCi doses (data not shown)
  hematology profile (white blood cells, lymphocytes, monocytes, neutrophils): complete recovery

B2: MAM279-DOTAM: GS-MAM279-tag (SEQ ID NO: 15) conjugated to the chelator DOTAM via C-terminal tag and maleimide connector, no radionuclide (conjugate)
chain: B1 chain
modifications: DOTAM chelator via maleimide on C-terminal tag; Ankyrin repeat protein with tag (GS-MAM279-tag)
[2]
  simultaneous binding to DLL3 and serum albumin: can bind simultaneously to human DLL3 and human serum albumin

B3: MAM279: Two domain (2D) ankyrin repeat protein: serum albumin-specific domain (SEQ ID NO: 7), PT linker, DLL3-specific domain of MAM093 (protein)
chain: DLGKKLLEAARAGQDDEVRELLKAGADVNAKDYFSHTPLHLAARNGHLKIVEVLLKAGADVNAKDFAGKTPLHLAADAGHLEIVEVLLKAGADVNAQDIFGKTPADIAADAGHEDIAEVLQKAAGSPTPTPTTPTPTPTTPTPTPTGSDLGKKLLAAAAQGQDDEVRELLKAGANVNAKDLFGYTPLHLAAWRGHLEIVEVLLKAGADVNAKDAAGETPLHLAAWFGHLEIVEVLLKAGADVNAQDLQGKTPADLAAKEGHEDIAEVLQKAA
modifications: Ankyrin repeat protein (MAM279)
Human DLL3-ECD
  Kd: 0.127 nM
  Koff Human DLL3-ECD: 1.31e-05 s⁻¹
  Kon Human DLL3-ECD: 102000 M⁻¹ s⁻¹
Human serum albumin
  Kd: 75.5 nM
  Koff HSA: 0.0216 s⁻¹
  Kon HSA: 286000 M⁻¹ s⁻¹
Pig DLL3-ECD
  Kd: 17.3 nM
  Koff pig DLL3-ECD: 0.000319 s⁻¹
  Kon pig DLL3-ECD: 18400 M⁻¹ s⁻¹

Source: patent US20250332297A1, “DLL3-SPECIFIC BINDING CONSTRUCTS AND THEIR USE IN RADIOTHERAPY” (MOLECULAR PARTNERS AG, priority 2024, published 2025)
